Source: patent US20050037967A1 (RESEARCH DEVELOPMENT FOUNDATION, published 2005)

What was measured:
[1] = target: human FLT-1 receptor (VEGFR-1) on PAE/FLT-1 cells (human) (UniProt P17948); assay: cell-based or functional assay
FLK-1 on PAE/FLK-1 cells = assay: cell-based or functional assay
[2] = target: Flk-1 on murine brain endothelioma bEnd.3 cells (mouse) (UniProt P35918); assay: cell-based or functional assay
[3] = target: human kinase domain receptor (KDR, VEGFR-2) on cells (human) (UniProt P35968); assay: cell-based or functional assay
Chain of human kinase domain receptor (KDR, VEGFR-2) on cells (human) (P35968 20-1356): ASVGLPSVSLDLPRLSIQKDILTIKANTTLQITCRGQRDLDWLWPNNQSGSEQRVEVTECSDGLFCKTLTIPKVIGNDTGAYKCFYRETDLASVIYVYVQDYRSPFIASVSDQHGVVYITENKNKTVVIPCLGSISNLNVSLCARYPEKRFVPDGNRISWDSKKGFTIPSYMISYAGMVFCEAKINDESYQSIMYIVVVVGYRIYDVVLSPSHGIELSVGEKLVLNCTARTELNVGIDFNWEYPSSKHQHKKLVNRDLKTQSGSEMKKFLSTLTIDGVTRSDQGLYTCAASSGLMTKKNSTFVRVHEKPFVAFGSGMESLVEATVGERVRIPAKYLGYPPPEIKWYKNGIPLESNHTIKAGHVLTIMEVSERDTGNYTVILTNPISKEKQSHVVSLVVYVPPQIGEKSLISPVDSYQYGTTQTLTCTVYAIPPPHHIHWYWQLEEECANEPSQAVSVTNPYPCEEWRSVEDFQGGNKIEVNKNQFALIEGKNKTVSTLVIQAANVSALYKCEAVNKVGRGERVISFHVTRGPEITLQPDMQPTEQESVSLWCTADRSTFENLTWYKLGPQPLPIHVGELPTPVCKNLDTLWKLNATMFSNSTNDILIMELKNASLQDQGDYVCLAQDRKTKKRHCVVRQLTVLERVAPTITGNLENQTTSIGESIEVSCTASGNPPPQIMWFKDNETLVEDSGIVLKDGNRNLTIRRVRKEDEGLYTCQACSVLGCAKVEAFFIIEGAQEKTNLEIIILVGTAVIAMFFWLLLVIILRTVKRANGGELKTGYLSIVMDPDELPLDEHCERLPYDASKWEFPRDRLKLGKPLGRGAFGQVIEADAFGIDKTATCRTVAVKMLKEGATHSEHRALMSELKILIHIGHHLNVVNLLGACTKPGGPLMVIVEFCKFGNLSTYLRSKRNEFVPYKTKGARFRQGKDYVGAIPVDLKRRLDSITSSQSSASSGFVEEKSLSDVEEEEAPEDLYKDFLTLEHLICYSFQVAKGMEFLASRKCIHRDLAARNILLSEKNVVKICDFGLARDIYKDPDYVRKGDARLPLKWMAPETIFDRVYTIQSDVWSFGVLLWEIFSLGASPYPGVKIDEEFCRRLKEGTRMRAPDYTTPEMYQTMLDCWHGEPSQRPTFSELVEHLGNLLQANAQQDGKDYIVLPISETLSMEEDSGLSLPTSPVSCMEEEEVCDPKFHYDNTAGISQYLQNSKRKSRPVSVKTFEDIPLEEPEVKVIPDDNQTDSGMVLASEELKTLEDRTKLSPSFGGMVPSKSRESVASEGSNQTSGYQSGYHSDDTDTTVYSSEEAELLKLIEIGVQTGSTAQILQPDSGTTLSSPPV

[4] = target: Flt-1 on osteoclast precursor cells (RAW 264.7 cells and mouse bone marrow-derived monocytes) (mouse) (UniProt P35969); assay: cell-based or functional assay
[5] = target: KDR/Flk-1 on adult bovine aortic arch-derived endothelial cells (ABAE) (bovine); assay: cell-based or functional assay
[6] = target: T1, soluble mouse Flk-1, purified and biotinylated, expressed in Sf9 cells (mouse, UniProt P35918 20-762); assay: ELISA, biotinylated soluble mouse Flk-1 on NeutrAvidin-coated plates; detection with 2C3
T1 construct: Captured on NeutrAvidin-coated plates; Only 'soluble' is said of the construct; also called biotinylated mouse flk-1 receptor; flk-1 receptor
T1 sequence (P35918 20-762 limits assumed): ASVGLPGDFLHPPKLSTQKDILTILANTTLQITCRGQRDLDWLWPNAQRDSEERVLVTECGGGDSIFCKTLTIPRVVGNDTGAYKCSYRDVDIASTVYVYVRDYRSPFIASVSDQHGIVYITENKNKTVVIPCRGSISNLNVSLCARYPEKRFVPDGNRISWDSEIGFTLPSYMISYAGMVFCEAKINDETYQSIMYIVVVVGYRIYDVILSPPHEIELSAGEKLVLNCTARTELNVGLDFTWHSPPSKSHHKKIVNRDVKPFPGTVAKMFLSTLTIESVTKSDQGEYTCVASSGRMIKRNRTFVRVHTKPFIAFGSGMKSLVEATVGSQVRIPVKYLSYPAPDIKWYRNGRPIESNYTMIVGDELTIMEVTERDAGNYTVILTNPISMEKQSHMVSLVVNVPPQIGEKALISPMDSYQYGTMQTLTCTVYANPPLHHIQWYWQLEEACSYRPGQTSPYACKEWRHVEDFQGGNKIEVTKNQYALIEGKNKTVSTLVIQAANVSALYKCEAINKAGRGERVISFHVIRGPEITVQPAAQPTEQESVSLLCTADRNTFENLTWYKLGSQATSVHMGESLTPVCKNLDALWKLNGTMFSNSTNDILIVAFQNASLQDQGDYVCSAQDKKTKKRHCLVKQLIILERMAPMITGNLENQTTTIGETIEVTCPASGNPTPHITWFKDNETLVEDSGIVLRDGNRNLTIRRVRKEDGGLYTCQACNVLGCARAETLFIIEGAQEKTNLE

Chain of human FLT-1 receptor (VEGFR-1) on PAE/FLT-1 cells (human) (P17948 27-1338): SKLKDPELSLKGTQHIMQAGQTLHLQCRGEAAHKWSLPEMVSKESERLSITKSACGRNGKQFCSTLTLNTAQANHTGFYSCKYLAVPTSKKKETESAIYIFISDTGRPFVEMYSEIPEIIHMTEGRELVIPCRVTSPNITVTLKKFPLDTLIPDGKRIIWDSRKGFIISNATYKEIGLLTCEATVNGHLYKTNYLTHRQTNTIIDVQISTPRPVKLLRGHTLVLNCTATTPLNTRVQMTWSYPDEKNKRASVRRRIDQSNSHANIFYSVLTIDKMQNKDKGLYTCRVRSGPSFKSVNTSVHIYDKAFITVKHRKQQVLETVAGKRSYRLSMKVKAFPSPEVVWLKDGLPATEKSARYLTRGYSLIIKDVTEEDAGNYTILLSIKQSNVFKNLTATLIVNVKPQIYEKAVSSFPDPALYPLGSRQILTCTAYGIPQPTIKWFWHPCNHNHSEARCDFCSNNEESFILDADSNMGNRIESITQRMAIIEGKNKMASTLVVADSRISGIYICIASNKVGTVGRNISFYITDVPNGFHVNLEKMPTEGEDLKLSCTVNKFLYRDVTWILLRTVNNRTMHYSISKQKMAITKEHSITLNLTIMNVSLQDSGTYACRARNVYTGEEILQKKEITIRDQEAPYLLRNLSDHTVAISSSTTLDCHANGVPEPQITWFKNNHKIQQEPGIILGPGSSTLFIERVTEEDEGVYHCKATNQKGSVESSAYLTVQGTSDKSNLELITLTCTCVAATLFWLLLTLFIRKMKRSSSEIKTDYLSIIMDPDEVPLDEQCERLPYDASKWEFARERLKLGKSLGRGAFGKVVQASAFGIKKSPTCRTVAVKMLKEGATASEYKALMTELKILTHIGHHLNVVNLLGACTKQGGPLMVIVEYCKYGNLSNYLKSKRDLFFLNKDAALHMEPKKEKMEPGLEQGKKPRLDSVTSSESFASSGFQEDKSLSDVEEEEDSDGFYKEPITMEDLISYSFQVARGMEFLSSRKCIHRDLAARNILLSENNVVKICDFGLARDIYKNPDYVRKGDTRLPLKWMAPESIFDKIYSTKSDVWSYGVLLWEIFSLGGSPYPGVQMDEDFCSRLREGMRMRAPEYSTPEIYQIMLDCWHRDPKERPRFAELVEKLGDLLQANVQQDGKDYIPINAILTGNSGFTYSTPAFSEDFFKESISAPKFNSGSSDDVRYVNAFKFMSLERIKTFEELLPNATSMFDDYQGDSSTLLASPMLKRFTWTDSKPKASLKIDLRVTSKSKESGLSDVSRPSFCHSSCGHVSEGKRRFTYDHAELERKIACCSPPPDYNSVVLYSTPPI
Chain of FLK-1 on PAE/FLK-1 cells (P35968 20-1356): as the sequence (P35968 20-1356) above
Chain of Flk-1 on murine brain endothelioma bEnd.3 cells (mouse) (P35918 20-1345): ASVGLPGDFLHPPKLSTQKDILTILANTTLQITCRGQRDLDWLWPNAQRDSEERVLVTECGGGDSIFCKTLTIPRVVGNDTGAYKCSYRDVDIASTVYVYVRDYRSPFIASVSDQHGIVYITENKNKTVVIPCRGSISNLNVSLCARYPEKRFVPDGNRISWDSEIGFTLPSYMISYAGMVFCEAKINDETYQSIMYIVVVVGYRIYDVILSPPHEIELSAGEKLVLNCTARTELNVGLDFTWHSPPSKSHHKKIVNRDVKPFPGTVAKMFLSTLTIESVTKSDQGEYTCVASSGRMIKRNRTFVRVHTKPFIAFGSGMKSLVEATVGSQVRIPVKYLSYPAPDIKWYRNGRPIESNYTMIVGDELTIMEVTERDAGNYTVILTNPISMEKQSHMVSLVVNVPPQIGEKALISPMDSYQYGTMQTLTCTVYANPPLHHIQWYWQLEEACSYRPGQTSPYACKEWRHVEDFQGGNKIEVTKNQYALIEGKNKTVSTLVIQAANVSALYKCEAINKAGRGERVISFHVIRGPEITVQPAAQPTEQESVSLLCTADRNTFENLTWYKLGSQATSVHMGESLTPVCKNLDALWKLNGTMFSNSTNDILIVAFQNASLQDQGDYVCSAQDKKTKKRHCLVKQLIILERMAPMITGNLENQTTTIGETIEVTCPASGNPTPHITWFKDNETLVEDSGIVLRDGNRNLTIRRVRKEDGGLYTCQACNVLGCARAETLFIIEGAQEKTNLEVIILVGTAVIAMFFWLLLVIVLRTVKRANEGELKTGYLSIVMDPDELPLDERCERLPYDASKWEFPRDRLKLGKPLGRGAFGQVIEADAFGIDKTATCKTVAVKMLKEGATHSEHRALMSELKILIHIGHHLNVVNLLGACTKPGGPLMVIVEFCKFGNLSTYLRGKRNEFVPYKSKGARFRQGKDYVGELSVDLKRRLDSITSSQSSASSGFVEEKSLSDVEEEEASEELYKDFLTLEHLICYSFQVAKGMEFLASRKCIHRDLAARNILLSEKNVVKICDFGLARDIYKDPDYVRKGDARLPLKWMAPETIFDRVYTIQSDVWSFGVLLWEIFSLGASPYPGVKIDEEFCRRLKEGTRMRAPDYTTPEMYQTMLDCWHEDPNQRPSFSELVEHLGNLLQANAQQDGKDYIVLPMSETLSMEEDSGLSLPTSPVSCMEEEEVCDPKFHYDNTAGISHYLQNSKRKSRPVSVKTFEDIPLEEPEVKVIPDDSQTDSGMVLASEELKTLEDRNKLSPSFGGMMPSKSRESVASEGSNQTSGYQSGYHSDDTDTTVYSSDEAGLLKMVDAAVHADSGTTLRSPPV

Q: Which results are given for “GrB/VEGF121 fusion protein (mature granzyme B, G4S tether, VEGF121) (from UniProt P10144 21-247; P15692 27-147)”?
A: clonogenic (colony-forming) assay on PAE/FLT-1 cells [1]: > 100 nM; cytotoxicity on log-phase PAE/FLT-1 cells, XTT, 72 h [1]: > 200 nM; IC50, clonogenic (colony-forming) assay on PAE/FLK-1 cells (FLK-1 on PAE/FLK-1 cells): 20 nM; IC50, cytotoxicity on log-phase PAE/FLK-1 cells, XTT, 72 h (FLK-1 on PAE/FLK-1 cells): 10 nM

Q: How did the IC50 for VEGF121/rGel (nM), cytotoxicity, bEnd3 (log phase) [2] turn out when “VEGF121/rGel fusion toxin (VEGF121 at the N-terminus, G4S tether, recombinant gelonin) (from UniProt P15692 27-147; P33186 47-297)” was run?
A: 1 nM

Q: And the Targeting index, bEnd3 (log phase) [2]?
A: 100

Q: What about the IC50 for VEGF121/rGel (nM), cytotoxicity, PAE/FLT-1 (confluent) [1] of the same molecule?
A: > 5000 nM

Q: And the IC50 for VEGF121/rGel (nM), cytotoxicity, PAE/FLT-1 (log phase) [1]?
A: 300 nM

Q: What about the Targeting index, PAE/FLT-1 (confluent) [1] of the same molecule?
A: < 2

Q: What about the Targeting index, PAE/FLT-1 (log phase) [1] of the same molecule?
A: 1

Q: And the dose inhibiting tube formation of PAE/Flt-1 cells on Matrigel by 50% [1]?
A: 100 nM

Q: And the IC50, cytotoxicity on log-phase PAE/KDR cells, 72 h (bladder tumor comparison experiment) [3]?
A: 1 nM

Q: And the IC50 for VEGF121/rGel (nM), cytotoxicity, HUVEC (hypoxia) [3]?
A: 700 nM

Q: And the IC50 for VEGF121/rGel (nM), cytotoxicity, HUVEC (normoxia) [3]?
A: 800 nM

Q: And the IC50 for VEGF121/rGel (nM), cytotoxicity, PAE/KDR (confluent) [3]?
A: 30 nM

Q: What about the IC50 for VEGF121/rGel (nM), cytotoxicity, PAE/KDR (log phase), 72 h [3] of the same molecule?
A: 0.5 nM

Q: And the Targeting index (ratio of IC50 of rGel to VEGF121/rGel), PAE/KDR (log phase) [3]?
A: 600

Q: What about the Targeting index, HUVEC (hypoxia) [3] of the same molecule?
A: 1

Q: And the Targeting index, HUVEC (normoxia) [3]?
A: 1

Q: And the Targeting index, PAE/KDR (confluent) [3]?
A: 167

Q: What about the dose inhibiting tube formation of PAE/KDR cells on Matrigel by 50% [3] of the same molecule?
A: 1 nM

Q: And the IC50, cytotoxicity on PAE/FLK-1 cells, XTT, 72 h (FLK-1 on PAE/FLK-1 cells)?
A: 1 nM

Q: What about the IC50, cytotoxicity on bone marrow-derived monocytes [4] of the same molecule?
A: 10 nM

Q: What about the IC50, cytotoxicity on dividing RAW cells [4] of the same molecule?
A: 40 nM

Q: What about the IC50 for VEGF121/rGel (nM), cytotoxicity, ABAE (log phase) [5] of the same molecule?
A: 0.059 nM

Q: What about the Targeting index, ABAE (log phase) [5] of the same molecule?
A: 8.9

B1: native human VEGF121 (ligand)
chain: APMAEGGGQNHHEVVKFMDVYQRSYCHPIETLVDIFQEYPDEIEYIFKPSCVPLMRCGGCCNDEGLECVPTEESNITMQIMRIKPHQGQHIGEMSFLQHNKCECRPKKDRARQEKCDKPRR
notes: mature; also called free VEGF121
Q: Does B1 bind [6]?
A: binds
